Patent US20120231065A1

Target: GCSF receptor (rat, endogenous, on neurons / in cortex tissue) (rat) (UniProt D4A3R0)
Assay: cell-based or functional assay

Chain of UniProt D4A3R0 (D4A3R0 entry or part of it limits assumed, form in doubt): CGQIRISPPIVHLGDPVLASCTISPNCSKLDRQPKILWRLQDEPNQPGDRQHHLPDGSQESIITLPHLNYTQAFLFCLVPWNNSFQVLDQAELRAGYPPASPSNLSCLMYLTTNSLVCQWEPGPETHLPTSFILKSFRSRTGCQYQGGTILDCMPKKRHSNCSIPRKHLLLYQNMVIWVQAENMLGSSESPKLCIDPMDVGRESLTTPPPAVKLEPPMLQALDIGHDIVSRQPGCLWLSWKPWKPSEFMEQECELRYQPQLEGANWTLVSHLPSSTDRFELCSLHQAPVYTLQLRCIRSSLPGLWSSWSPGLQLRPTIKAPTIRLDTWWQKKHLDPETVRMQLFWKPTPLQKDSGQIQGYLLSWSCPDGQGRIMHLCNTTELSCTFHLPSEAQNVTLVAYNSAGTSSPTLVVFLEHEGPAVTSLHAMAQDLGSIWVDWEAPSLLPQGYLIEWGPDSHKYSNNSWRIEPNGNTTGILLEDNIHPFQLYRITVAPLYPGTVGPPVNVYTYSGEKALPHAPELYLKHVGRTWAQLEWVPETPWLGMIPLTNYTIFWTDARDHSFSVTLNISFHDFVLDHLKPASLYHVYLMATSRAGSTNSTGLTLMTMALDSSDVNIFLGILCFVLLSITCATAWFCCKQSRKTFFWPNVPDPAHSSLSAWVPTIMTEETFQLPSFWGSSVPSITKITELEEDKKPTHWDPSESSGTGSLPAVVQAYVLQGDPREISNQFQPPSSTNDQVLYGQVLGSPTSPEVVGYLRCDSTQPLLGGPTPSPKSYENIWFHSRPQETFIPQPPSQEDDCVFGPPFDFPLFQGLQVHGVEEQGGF

STAT3 nuclear translocation in neurons of the penumbra, percent of STAT3 positive neurons from all neurons (GCSF treated rats versus untreated controls) (percent of STAT3 positive neurons): 34.4
Substance: recombinant human GCSF, Neupogen (Amgen) (from UniProt P09919 31-207) (ligand)
